Data: patent publication US20130116412

Experiments:
Ac-GFPG-NH2 = tested on: T1, Ac-GFPG-NH2
T1 sequence: GFPG

[1] = tested on: GST-(PPG)5, fusion of glutathione S-transferase and (Pro-Pro-Gly)5 with an intervening thrombin cleavage site
Chain of GST-(PPG)5, fusion of glutathione S-transferase and (Pro-Pro-Gly)5 with an intervening thrombin cleavage site (chain, as listed by the source): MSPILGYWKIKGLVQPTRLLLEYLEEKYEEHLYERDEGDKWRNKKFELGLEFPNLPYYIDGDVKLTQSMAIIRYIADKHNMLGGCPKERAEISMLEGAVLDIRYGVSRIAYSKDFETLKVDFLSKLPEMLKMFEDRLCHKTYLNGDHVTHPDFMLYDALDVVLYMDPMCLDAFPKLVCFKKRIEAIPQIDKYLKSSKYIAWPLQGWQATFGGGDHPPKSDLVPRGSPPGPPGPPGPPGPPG

human prolyl-4-hydroxylase (P4H), full-length tetramer produced from plasmid pBK1.PDI1.P4H7
in vitro hydroxylation of proline, MALDI-TOF / LC-MS (Ac-GFPG-NH2): The positive control showed that the proline residue in Ac-GFPG-NH2 was hydroxylated. | in vitro hydroxylation of proline residues, MALDI-TOF of the cleaved peptide [1]: up to 3 hydroxyproline residues were produced in the (PPG)5 peptide after incubation with P4H
